The source of these data is the supplement of paper PMC9170038.

This series relates to MS2 coat protein. Put plainly: apparent KD of MS2 coat protein; higher = weaker reporter binding. Conditions: Eterna round: R107. As for the experimental part: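 RNA-MaP round R107: designed RNA switches with theophylline, tryptophan, arginine or FMN aptamers are transcribed on-chip within common flanks. They are titrated with SNAP-549-labelled MS2 coat protein in RNA-MaP buffer (100 mM Tris pH 7.5, 80 mM KCl, 4 mM MgCl2), without ligand or with the indicated ligand. Median apparent KD per design.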

Where [1] appears, read: input ligand: theophylline 20 uM.
[2] abbreviates: input ligand: tryptophan 2.4 mM.
Setting [3] is: input ligand: theophylline 2 mM.

Take “AAUAACAUGAGGAUCACCCAUGUAAAAGAUACCAGAGUGAUGAUCCUCCCUUGGCAGCUUAAUAACGCUAUCGGAAACGAUAGCG [Mat - Same State Theophlline A - Mod of Eli - D8]”: the “apparent KD of MS2 coat protein” value by setting is: (input ligand: arginine 13.2 mM) 37.7 nM; under setting [1], 170 nM; under setting [2], 72 nM.
As to “AAUAAGAGCUCGGAUACCAGCGAAAACAGGCACAUGAGGAUCACCCAUGUUAACGCACUGCGCCCUUGGCAGCCGCACGUGUGUC [theeternabot_sameState_MS2_Theo_B_39]”, the “apparent KD of MS2 coat protein” value (input ligand: arginine 13.2 mM) is 19.6 nM, the “apparent KD of MS2 coat protein” value under setting [1] came out at 25.4 nM and the “apparent KD of MS2 coat protein” value under setting [2] came to 22 nM.
For “AAUAAGAUCCUCAUGUGAGUCGUACCAUAACGAGGACCGGUACGGCCGCCACUCGAACAUGAGGAUCACCCAUGUAGGUACGACA [M'-T'-T-MS2-T'' - Design 8]”, the “apparent KD of MS2 coat protein” value is 49.8 nM (input ligand: arginine 13.2 mM), 320 nM under setting [1] and 882 nM under setting [3].
Regarding “AAUAAUAAGGCGGCCGCCACUAAACAUGAGGAUCACCCAUGUCUCGAGCGCAUACAUAAGGGAUGUAGGACCGGGCCAAUAAUAA [Exclusion - Tryptophan B (Freestyle 1)]”, the “apparent KD of MS2 coat protein” value (input ligand: arginine 13.2 mM) worked out at 19 nM; the “apparent KD of MS2 coat protein” value (input ligand: none) turned out to be 23.5 nM; the “apparent KD of MS2 coat protein” value under setting [1] was 25.7 nM; the “apparent KD of MS2 coat protein” value under setting [3] amounted to 23 nM; the “apparent KD of MS2 coat protein” value under setting [2] was 21.3 nM.
On to “AAUAAUAAGGCGGCCGCCACUAAACAUGAGGAUCACCCAUGUCUCGAGGGCUUGCGUUGGGAAAGUAGGACCGGGCCAAUAAUAA [Exclusion - Tryptophan B (Freestyle 7)]”, for which the “apparent KD of MS2 coat protein” value (input ligand: arginine 13.2 mM) was determined as 10.2 nM; the “apparent KD of MS2 coat protein” value (input ligand: none) is 18.7 nM; the “apparent KD of MS2 coat protein” value under setting [1] was found to be 20.5 nM; the “apparent KD of MS2 coat protein” value under setting [3] turned out to be 14.9 nM; the “apparent KD of MS2 coat protein” value under setting [2] is 13.3 nM.
For “AAUAAUCUAGGUGAUACCAGCUCAACAUGAGGAUCACCCAUGUGCUCAUGAAGAGCUGAGAGCCCUUGGCAGCACCUAGAUAAUA [(Theo1)-(Ms2)-(M)'-(T)'-(Theo2)_Design2]” the same measures were 461 nM, 739 nM, 676 nM, 28.5 nM and 1100 nM.
In the same order, the values of “AAUAUAUAUCACGAACUGUGGUGUAUGUUGCGAGGACCGGUACGGCCGCCACUCGACCGGUGGUACAUGAGGAUCACCCAUGUUG [XTryp A #10]” are 35.6 nM, 57.2 nM, 82 nM, 56.4 nM and 58.1 nM.
In the same order, the values of “AAUAUCAUGAGGAUCACCCAUGAAGAAGAUACCAGAGUGAUGAUCCUCCCUUGGCAGCUUAACGCUGAUUGAUUACAAUCAGCGA” are 31.1 nM, 51.8 nM, 128 nM, 200 nM and 30.3 nM.
For “AAUAUUAACUGAAGGAGCGUGUUAUGUACAUGAGGAUCACCCAUGUAUAGGGUAAUACUAACACAGGUAGGUCGCAGAAUAAUUA [JR_SSArginiB_Sub010]”, the “apparent KD of MS2 coat protein” value runs as follows: (input ligand: arginine 13.2 mM) 20.2 nM; (input ligand: none) 20.6 nM; under setting [1], 37.9 nM; under setting [3], 22 nM; under setting [2], 18.5 nM.
For “AAUCAUGGAAACAUGACAUGAGGGUUACUCCGAGGACCGGUACGGCCGCCACUCGCGAGGAGGCGGACAUGAGGAUCACCCAUGU [#04 Tryptophan A Same State]” the same measures were 32.4 nM, 392 nM, 240 nM, 260 nM and 41.6 nM.
Regarding “AAUCCAAGAAAUGAUACCAGUCCCACUCAGGACAUGAGGAUCACCCAUGUAAUACAGGGAGACCCUUGGCAGCAUCGAAUAAACA [theeternabot_sameState_MS2_Theo_B_33]”, the “apparent KD of MS2 coat protein” value by setting is: (input ligand: arginine 13.2 mM) 178 nM; under setting [1], 479 nM; under setting [2], 1070 nM.
In the same order, the values of “AAUCUGUCGGGUGAUACCAGCCUCGGCACAUCUCGUGCCGAACAUGAGGAUCACCCAUGUGGCCCUUGGCAGCACAUGACAAAUC [Usreerso]” are 289 nM, 801 nM and 520 nM.
As to “AAUGUGAUAGUCGUACUCUCACACUGAGAAGGAGCGCGAAAGUUCGCAGGUAGGUCGCUCAGUUAUACAUGAGGAUCACCCAUGU [Edgeised]”, the “apparent KD of MS2 coat protein” value is 21.9 nM (input ligand: arginine 13.2 mM); 21 nM (input ligand: none); 26.8 nM under setting [1]; 27.3 nM under setting [3]; 20.9 nM under setting [2].
Turning to “ACACAUGAGGAUCACCCAUGUUCAAUAGAUACCAGUGAUACGGUGCACCCUUGGCAGCUGUUGCUGAGUGAUGGUUCCCUCGGAA [#22 SameState-TheophyllineA]”, the “apparent KD of MS2 coat protein” value reads like this: (input ligand: arginine 13.2 mM) 32.9 nM; under setting [1], 75.6 nM; under setting [2], 52.5 nM.
For the sequence “ACACAUGAGGAUCACCCAUGUUGAGGAACACGAGGACCGGUACGGCCGCCACUCGACACAUGAGGAUCACCCAUGUGAUCACCCA [Same State Tryptophan A 2]”, the “apparent KD of MS2 coat protein” value runs as follows: (input ligand: arginine 13.2 mM) 49.7 nM; under setting [1], 129 nM; under setting [3], 173 nM.
For “ACAGGUACGCCUAUUAAAAUAAAACACCUACGAGGACCGGUACGGCCGCCACUCGGGUGACAUGAGGAUCACCCAUGUGGCUAAA [Ceeron]” the same measures were 101 nM, 610 nM and 851 nM.
As to “ACAUCCAGGUUAAUCGUGGACAUGGUCGAUACCAGUAUUUUAAUCUACCCUUGGCAGCGACAUGAGGAUCACCCAUGUGCGAUGA [XTheo A #14]”, the “apparent KD of MS2 coat protein” value (input ligand: arginine 13.2 mM) stood at 13.8 nM, the “apparent KD of MS2 coat protein” value under setting [1] amounted to 17.2 nM and the “apparent KD of MS2 coat protein” value under setting [2] was determined as 14.9 nM.
On to “ACAUGAGGAUCACCCAUGUAAGGUCUUGAUACCAGACGCGAAGUAGUCCCUUGGCAGCAAAUACGUGAGGGUCGCACAUGUGUAA [mcnmullin]”, for which the “apparent KD of MS2 coat protein” value (input ligand: arginine 13.2 mM) is 18.4 nM; the “apparent KD of MS2 coat protein” value (input ligand: none) was found to be 33.1 nM; the “apparent KD of MS2 coat protein” value under setting [1] is 35.9 nM; the “apparent KD of MS2 coat protein” value under setting [3] was 59.8 nM; the “apparent KD of MS2 coat protein” value under setting [2] was determined as 27.8 nM.
